The target of experiment [1] is T1, Recombinant yeast Rnr1 protein (large subunit of ribonucleotide reductase) (yeast (Saccharomyces cerevisiae), UniProt P21524 1-888).
T1 construct: It is in monomer/dimer/tetramer equilibrium depending on dTTP; also called yeast R1 protein
T1 sequence (looked up): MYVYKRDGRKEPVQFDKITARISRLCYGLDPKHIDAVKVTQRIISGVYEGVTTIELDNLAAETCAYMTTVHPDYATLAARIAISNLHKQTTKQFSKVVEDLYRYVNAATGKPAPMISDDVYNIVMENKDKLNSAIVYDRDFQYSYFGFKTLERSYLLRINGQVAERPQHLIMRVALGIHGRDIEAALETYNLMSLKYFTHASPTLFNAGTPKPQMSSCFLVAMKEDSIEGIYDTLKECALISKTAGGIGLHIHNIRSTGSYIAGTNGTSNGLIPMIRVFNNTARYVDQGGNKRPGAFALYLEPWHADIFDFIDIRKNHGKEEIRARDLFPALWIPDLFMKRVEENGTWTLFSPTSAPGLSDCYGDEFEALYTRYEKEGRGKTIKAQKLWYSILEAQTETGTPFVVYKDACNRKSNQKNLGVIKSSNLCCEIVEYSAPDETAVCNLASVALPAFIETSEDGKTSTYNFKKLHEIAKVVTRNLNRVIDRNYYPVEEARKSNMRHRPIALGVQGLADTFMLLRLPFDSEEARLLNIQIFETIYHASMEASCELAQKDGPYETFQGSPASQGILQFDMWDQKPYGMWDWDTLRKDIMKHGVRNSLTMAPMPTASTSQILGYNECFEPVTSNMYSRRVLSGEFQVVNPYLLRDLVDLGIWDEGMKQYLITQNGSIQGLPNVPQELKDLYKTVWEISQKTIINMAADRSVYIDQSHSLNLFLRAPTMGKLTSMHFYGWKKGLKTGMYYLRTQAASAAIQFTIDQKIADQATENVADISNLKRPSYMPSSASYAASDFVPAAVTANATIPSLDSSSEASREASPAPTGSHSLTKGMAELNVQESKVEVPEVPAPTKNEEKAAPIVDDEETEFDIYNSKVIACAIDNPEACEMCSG
Put plainly: BIAcore SPR, Sml1p immobilized, Rnr1p injected (0.1-2.5 µM); equilibrium response fitted to one site binding model; equilibrium response fit (GraphPad Prism), directly determined. As for the experimental part:
(§1) In this figure, the bulk effect response of around 60 RU has been subtracted.
(§2) BIAcore biosensor analysis. The interaction between Sml1p and either yeast Rnr1p or mouse R1 protein was studied by biosensor analysis using the BIAcore method (Biacore AB). The Sml1 protein was prepared in 10 mM sodium acetate, pH 5.2, at a concentration of 0.44 mg/ml; it was then immobilized on the dextran layer of the sensor chip as described previously for the mouse R2 protein (17). The ligand proteins were equilibrated with running buffer (10 mM Hepes-KOH, pH 7.4, 200 mM potassium acetate, 1 mM EDTA, 5 mM magnesium acetate and 0.05% Surfactant P20 (BIAcore). The interactions were studied at a constant temperature of 22° C. and a constant flow of 5 μl/min. Kinetics for the interaction of Sml1p with yeast Rnr1p was determined by allowing the immobilized Sml1p to interact with increasing concentrations of Rnr1p (18). The resonance unit (RU) is proportional to the mass, and 1 RU corresponds to a surface concentration of 1 pg of protein/mm² of the 100 nm thick dextran layer (19).
(§3) In control experiments, where the same series of Rnr1p solutions passed a sensor chip without immobilized Sml1p, a "bulk effect" gave a response of only about 60 RU. […] Calculating the equilibrium dissociation constant from these rate constants gave a K_0 of about 0.25 µM, which is close to the directly determined K_0.

The target of experiment [2] is T1, Recombinant yeast Rnr1 protein (large …). Put plainly: BIAcore SPR, BIAevaluation software, lower curves of FIG. 12A; kinetic fit (BIAevaluation), lower curves of FIG. 12A. The method, then: as §1, §2, §3
A general note: Surface plasmon resonance follows binding to a sensor surface in real time, without labels.

In the next experiment the target is T2, mouse RNR (Mus musculus, UniProt P07742).
T2 construct: made in house; host or cells: E. coli BL21 (DE3)pLysS, pET3a
T2 sequence (P07742 1-792): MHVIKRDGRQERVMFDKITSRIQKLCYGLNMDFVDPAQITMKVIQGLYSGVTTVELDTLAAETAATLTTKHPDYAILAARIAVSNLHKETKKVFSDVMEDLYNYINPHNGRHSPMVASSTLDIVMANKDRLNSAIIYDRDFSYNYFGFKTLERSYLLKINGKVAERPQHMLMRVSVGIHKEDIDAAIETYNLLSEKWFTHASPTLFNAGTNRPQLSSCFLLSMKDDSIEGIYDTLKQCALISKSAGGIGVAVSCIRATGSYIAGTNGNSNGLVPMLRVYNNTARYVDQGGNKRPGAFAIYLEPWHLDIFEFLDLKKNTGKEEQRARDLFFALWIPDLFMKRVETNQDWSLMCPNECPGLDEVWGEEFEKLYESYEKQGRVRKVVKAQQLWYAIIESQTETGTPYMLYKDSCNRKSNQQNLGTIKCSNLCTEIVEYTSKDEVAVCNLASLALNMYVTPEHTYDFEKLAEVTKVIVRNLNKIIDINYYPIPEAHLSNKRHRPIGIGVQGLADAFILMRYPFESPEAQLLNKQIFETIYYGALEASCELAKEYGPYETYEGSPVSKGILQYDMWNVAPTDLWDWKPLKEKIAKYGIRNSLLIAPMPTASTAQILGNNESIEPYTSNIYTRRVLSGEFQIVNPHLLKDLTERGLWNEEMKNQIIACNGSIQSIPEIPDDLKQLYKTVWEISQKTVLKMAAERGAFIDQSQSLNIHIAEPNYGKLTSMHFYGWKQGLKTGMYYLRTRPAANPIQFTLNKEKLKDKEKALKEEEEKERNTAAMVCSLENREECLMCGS
The experiment in a line: in vitro mouse ribonucleotide reductase CDP assay. Particulars: 300 fold molar excess of Sml1p (36 μg), 1 μg R1, increasing R2; dependent on R1 to R2 ratio. Format: biochemical. The method, then: FIG. 13 Inhibition of mouse RNR by the Sml1p. A series of tubes containing mouse RNR (1 μg of R1 protein and the indicated amounts of R2 protein) were incubated at 37° C. for 30 minutes as described in FIG. 9 in the absence (ã) or in the presence of 36 μg of Sml1p (o).
Inhibition of mouse ribonucleotide reductase by the Sml1protein. The effects of Sml1 protein on pure recombinant mouse ribonucleotide reductase were tested in a CDP assay in the presence of ATP as a positive effector (FIG. 13). In the figure, RNR activity in the presence of a fixed amount of R1 protein, and in the presence or absence of a 300 fold molar excess of Sml1p, are plotted against increasing concentrations of the R2 protein.

B1: Recombinant yeast Sml1 protein (other)
chain: MQNSQDYFYAQNRCQQQQAPSTLRTVTMAEFRRVPLPPMAEVPMLSTQNSMGSSASASASSLEMWEKDLEERLNSIDHDMNNNKFGSGELKSMFNQGKVEEMDF
notes: Immobilized on the BIAcore chip in the biosensor experiments; also called YML058W product
For B1, the Kd (in general, the equilibrium constant for the complex coming apart) in experiment [1] turned out to be 410 nM. Moreover, in experiment [2], the koff (as a rule, the first-order rate constant of dissociation) came to 0.04 s⁻¹ and the on-rate (kon) (commonly the second-order rate constant of association) is approximately 153000 M⁻¹ s⁻¹.

B2: Sml1p: 104 amino acid yeast protein encoded by YML058w (SML1) that binds Rnr1 and inhibits ribonucleotide reductase; recombinant, expressed in E. coli (protein)
chain: MQNSQDYFYAQNRCQQQQAPSTLRTVTMAEFRRVPLPPMAEVPMLSTQNSMGSSASASASSLEMWEKDLEERLNSIDHDMNNNKFGSGELKSMFNQGKVEEMDF
For the molecule B2, the “inhibition of mouse RNR compared with yeast RNR” value in the experiment with mouse RNR is recorded as “less pronounced”.

Values taken from patent publication US7125658B2, “Small protein that interacts with a ribonucleotide reductase subunit and uses thereof” (The Trustees of Columbia University in the City of New York, priority 1998, dated 2006).
